Measurements taken from US20100330094A1 (NOVIMMUNE S A, published 2010).

T1: recombinant human IP-10 (hIP-10) (human, UniProt P02778 22-98)
T1 sequence (looked up): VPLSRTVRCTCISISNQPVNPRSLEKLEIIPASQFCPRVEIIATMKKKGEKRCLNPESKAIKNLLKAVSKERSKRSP

T2: native human IP-10 (hIP-10) (human, UniProt P02778 22-98)
T2 sequence (looked up): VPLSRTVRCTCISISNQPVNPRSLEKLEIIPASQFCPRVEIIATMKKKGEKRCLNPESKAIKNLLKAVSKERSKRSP

T3: NusA-hIP-10 fusion protein (human, UniProt P02778 22-98)
T3 construct: mature; not shown: NusA fusion partner encoded by expression plasmid pET43 (Novagen); vector-encoded linker with Factor X protease cleavage site at the C-terminus of NusA; AviTag biotinylation site (Avidity) at the C-terminus of the chemokine
T3 sequence (looked up): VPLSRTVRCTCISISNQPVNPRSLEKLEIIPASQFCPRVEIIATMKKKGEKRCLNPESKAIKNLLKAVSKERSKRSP

T4: NusA-cynomolgus IP-10 fusion protein (cynomolgus, UniProt A0A2K5WKN6 22-98)
T4 construct: mature; not shown: NusA fusion partner encoded by expression plasmid pET43 (Novagen); vector-encoded linker with Factor X protease cleavage site
T4 sequence: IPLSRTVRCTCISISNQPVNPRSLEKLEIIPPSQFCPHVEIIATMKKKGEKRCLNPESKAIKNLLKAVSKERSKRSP

T5: NusA-mouse IP-10 fusion protein (mouse, UniProt P17515 22-98)
T5 construct: mature; not shown: NusA fusion partner encoded by expression plasmid pET43 (Novagen); vector-encoded linker with Factor X protease cleavage site
T5 sequence (looked up): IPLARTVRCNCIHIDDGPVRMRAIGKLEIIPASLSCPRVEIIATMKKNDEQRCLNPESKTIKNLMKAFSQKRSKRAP

T6: NusA-rat IP-10 fusion protein (rat, UniProt P48973 22-98)
T6 construct: mature; not shown: NusA fusion partner encoded by expression plasmid pET43 (Novagen); vector-encoded linker with Factor X protease cleavage site
T6 sequence (looked up): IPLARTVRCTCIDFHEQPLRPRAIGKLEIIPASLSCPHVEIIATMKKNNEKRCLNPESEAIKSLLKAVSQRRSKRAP

T7: hIP-10 immobilized on glycosaminoglycan (FITC-labeled heparin) (human, UniProt P02778 22-98)
T7 construct: mature; also called hIP-10 on GAG; hIP-10 immobilized on GAG
T7 sequence (looked up): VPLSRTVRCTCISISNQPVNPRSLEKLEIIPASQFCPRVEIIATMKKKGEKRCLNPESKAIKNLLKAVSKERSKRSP


Legend:
[1] = biological target: T1, recombinant human IP-10 (hIP-10); assay: cell-based or functional assay
[2] = biological target: T1, recombinant human IP-10 (hIP-10); assay: SPR (Biacore 2000)
Description: (§1) 200RU (response unit) of a goat anti-human polyclonal IgG (ahIgG; Biacore AB, Uppsala, Sweden) were immobilized by EDC/NHS chemistry on a C1 Biacore chip. […] The surface was regenerated after each cycle by injection of 10 mM glycine pH=1.5 at 30 μL/min, for 30s followed by 1 min. of stabilization time in HBS-EP buffer.
(§2) Binding was measured by passing either hIP-10 (Peprotech, Rocky Hill N.J.) or a NusA-hIP-10 fusion protein at the following concentrations: 34.7 nM, 11.6 nM, 3.85 nM, 1.28 nM, 0.428 nM, 0.142 nM and 0 nM. All solutions were diluted in HBS-EP buffer (Biacore AB, Uppsala, Sweden). Injection was performed at 50 μl/min for 3 min. followed by 12 min. of dissociation time and the temperature was set at 25° C. […] Very similar values were obtained using rhIP-10 or the NusA-hIP-10 fusion, but better response signals were obtained with the fusion protein due to its larger size that induces a better response on the Biacore.

[3] = biological target: T2, native human IP-10 (hIP-10); assay: cell-based or functional assay
[4] = biological target: T1, recombinant human IP-10 (hIP-10); assay: SPR (Biacore 2000): IgG1 captured on anti-human IgG, IP-10 in solution, 25 C, 1:1 Langmuir fit
Description: as §1, §2

[5] = biological target: T3, NusA-hIP-10 fusion protein; assay: capture ELISA: NI-0801 coated, concentration range of NusA fusion protein, revealed with anti-NusA antibody
Excerpt: (§3) Briefly, IP-10 cloned from cDNA isolated from mouse, rat, rabbit and cynomolgus as well as a panel of human chemokines was expressed and purified as described in Example 1.

[6] = biological target: T4, NusA-cynomolgus IP-10 fusion protein; assay: as above
Excerpt: as §3

[7] = biological target: T5, NusA-mouse IP-10 fusion protein; assay: as above
Excerpt: as §3

[8] = biological target: T6, NusA-rat IP-10 fusion protein; assay: as above
Excerpt: as §3

[9] = biological target: T7, hIP-10 immobilized on glycosaminoglycan …; assay: capture assay: IgG captured on coated anti-human Fc, FITC-heparin pre-incubated with hIP-10 added, revealed with HRP-coupled anti-FITC Fab
Description: As with many chemokines, hIP-10 is able to oligomerize and bind to glycosaminoglycans (GAG) expressed at surface of cells such as endothelial cells. In order to make sure that the antibodies were able to bind to hIP-10 in this context, they were tested in the following assay. Maxisorb 96 well plates were coated with anti-human Fc (Jackson, West Grove, Pa.) as capturing reagent for the human IgG to be tested. FITC-labeled heparin (Sigma, St. Louis, Mo.) was used as a prototypic GAG and was incubated with hIP-10 before addition to the captured anti-hIP10 antibodies. […] As shown in FIG. 4 some antibodies were able to bind hIP-10 when bound to GAG whereas others were unable to do so probably because their epitope on hIP-10 was no longer accessible within the oligomeric structure.

Row | Calcium flux IC50 (nM); 10 nM rhIP-10 [1] [nM] | Chemotaxis IC50 (nM); 1 nM rhIP-10 [1] [nM] | Chemotaxis IC50 (nM); 0.2 nM rhIP-10 [1] [nM] | Chemotaxis IC50 (nM); native hIP-10 at 0.6 nM [3] [nM] | Binder | also measured
1 | 6.3 | – | 0.24 | 0.58 | NI-0801, IgG1 format (antibody, V domains shown, Claims 7 and 21 swap the heavy and light chain numbers) VH: QVQLVESGGGVVQPGRSLRLSCAASGFTFSNSGIHWVRQAPGKGLEWVAVISYDGSNKYYADSVKGRFTISRDNSKNTLYLQMNSLRAEDTAVYYCARLRDNAEYTDYWGQGTLVTVSS VL: NFMLTQPHSVSESPGKTVTISCTGSGGSIASNYVQWYQQRPGSSPTTVIYEDNQRPSGVPDRFSGSIDSSSNSASLTISGLKTEDEADYYCQSYDPLPVWVFGGGTKLTVLG | fold improvement of affinity over CC21R3P1_F1 [2]: 90 fold; Kd [4]: 0.109 nM; EC50 (read off the curve) [5]: ~3 nM; EC50 (read off the curve) [6]: ~1 nM; binding result [7]: no binding (tested: about 2e-7 M); binding result [8]: no binding (tested: about 2e-7 M)
2 | 4.7 | – | 0.42 | 1.2 | CF1H1R3P4_B5, IgG1 format (antibody, V domains shown) VH: QVQLVESGGGVVQPGRSLRLSCAASGFTFSNSGIHWVRQAPGKGLEWVAVISYDGSNKFYADSVKGRFTISRDNSKNTLYLQMNSLRAEDTAVYYCAKLRDNGEYLDYWGQGTLVTVSS VL: NFMLTQPHSVSESPGKTVTISCTGSGGSIDRNYVQWYQQRPGSSPTTVIYEDNQRPSGVPDRFSGSIDSSSNSASLTISGLKTEDEADYYCQSYVETPEWVFGGGTKLTVL | –
3 | 4.1 | – | 0.19 | 0.64 | CF1N1R3P4_C7, IgG1 format (antibody, V domains shown) VH: QVQLVESGGGVVQPGRSLRLSCAASGFTFSNSGIHWVRQAPGKGLEWVAVISYDGSNKFYADSVKGRFTISRDNSKNTLYLQMNSLRAEDTAVYYCAKLRDNAEYTDYWGQGTLVTVSS VL: NFMLTQPHSVSESPGKTVTISCTGSGGSIDRNYVQWYQQRPGSSPTTVIYEDNQRPSGVPDRFSGSIDSSSNSASLTISGLKTEDEADYYCQSYDPLPVWVFGGGTKLTVL | –
4 | 5.9 | – | 0.69 | 1.7 | CF1A11R3P3_F3, IgG1 format (antibody, V domains shown) VH: QVQLVESGGGVVQPGRSLRLSCAASGFTFSNSGIHWVRQAPGKGLEWVAVISYDGSNKFYADSVKGRFTISRDNSKNTLYLQMNSLRAEDTAVYYCAKLRDNGEYLDYWGQGTLVTVSS VL: NFMLTQPHSVSESPGKTVTISCTGSGGSIDRNYVQWYQQRPGSAPITVIYEDNQRPSGVPDRFSGSIDSSSNSASLTISGLRTDDEADYYCQSYDSINLWVFGGGTKVTVL | –

More lines, now with the values behind:

Row | Binder | Calcium flux IC50 (nM); 10 nM rhIP-10 [1] [nM] | Chemotaxis IC50 (nM); 1 nM rhIP-10 [1] [nM] | Chemotaxis IC50 (nM); 0.2 nM rhIP-10 [1] [nM] | Chemotaxis IC50 (nM); native hIP-10 at 0.6 nM [3] [nM] | also measured
5 | CC21R3P1_E7, IgG1 format (antibody, V domains shown) VH: QLVESGGGVVQPGRSLRLSCAASGFTFSTYGMHWVRQAPGKGLEWVAVISYDGGTKYYADSVKGRFTISRDNSMKTLYLQMNSLRTEDTAVYYCAKDLGDLPPGLDYWGQGTMVTVSS VL: not shown | > 200 | 56 | – | – | –
6 | CF1H1R3P3_G11, IgG1 format (antibody, V domains shown) VH: QVQLVESGGGVVQPGRSLRLSCAASGFTFSNSGIHWVRQAPGKGLEWVAVISYDGSNKFYADSVKGRFTISRDNSKNTLYLQMNSLRAEDTAVYYCAKLRDNGEYLDYWGQGTLVTVSS VL: NFMLTQPHSVSESPGKTVTISCTGSGGSIDRNYVQWYQQRPGSSPTTVIYEDNQRPSGVPDRFSGSIDSSSNSASLTISGLKTEDEADYYCQSYDPLPVWVFGGGTKLTVL | 7.9 | – | 0.2 | 1.9 | –
7 | CB2R2P4_C3, IgG1 format (antibody, V domains shown) VH: QVTLRESGPALVKPTQTLTLTCTFSGFSLTTSGMSVIWIRQPPGKALEWLARIDSDDEKHYNTSLKTRLAISKDTSKNQVVLTMTNMDPVDTGTYYCARLRAGSGPYVFDSWGQGTTVTVSS VL: QSVLTQPPSASGTPGQRVTISCSGSSSNIGSNTVNWYQRLPGAAPQLLIYNNDQRPSGIPDRFSGSKSGTSGSLVISGLQSEDEADYYCASWDDSLNGRVFGGGTKLTVL | > 200 | 33 | – | – | –
8 | CB21R3P6_G7, IgG1 format (antibody, V domains shown) VH: QVQLVQSGAEVKKPGSSVTVSCKASGGTFSSFSITWLRQAPGQGLEWMGEITPMFGIANYAQKFQGRVTISADESTSTAYMELSGLTSEDTAMYYCARDGRFDVSDLLTDKPKVTINYNGMDVWGQGTLVTVSS VL: QSVLTQPPSASGTPGQRVTISCSGSSSNIGSNTVNWYQRLPGAAPQLLIYNNDQRPSGIPDRFSGSKSGTSGSLVISGLQSEDEADYYCASWDDSLNGRVFGGGTKLTVL | 6.2 | 8.8 | – | 7.8 | binding result [9]: no binding
9 | CC21R3P4_F4, IgG1 format (antibody, V domains shown) VH: QVQLVESGGGVAHSGKSLRLSCAASGFTFSNYGMHWVRQAPGKGLEWLAVISYDGSNRYYADSVKGRFTISRDNSNNTLNLQMSSLRAEDTALYYCAKDAGGPLDYWGRGTLVTVSS VL: SYVLTQPPSVSVAPGQMARITCGGNNIGDKSVQWYQQRPGQAPLLVVYDDSDRPSGIPERFSGSYSRNTATLTISRVEAGDEADYYCQVWDSSSDHPEVVFGGGTKLTVL | > 200 | 157 | – | – | –
10 | CC21R3P1_F1, IgG1 format (antibody, V domains shown) VH: QVQLVESGGGVVQPGRSHTLSCAASGFAFKNSGIHWVRQAPGKGLEWVAVISYDGSNKFYADSVKGRFTISRDNSQNTVYLQMTDLRPDDTAVYYCARDGSESEYLDYWGKGTLVTVSS VL: NFMLTQPHSVSESPGKTVTISCTGSGGSIDRNYVQWYQQRPGSAPITVIYEDNQRPSGVPDRFSGSIDSSSNSASLTISGLRTDDEADYYCQSYDSINLWVFGGGTKVTVL | 9.8 | 3 | – | 11 | Kd [4]: 9.2 nM
11 | CC21R3P1_A2, IgG1 format (antibody, V domains shown) VH: QLVESGGGLIQPGGSLRLSCAASGFSVSDTYMNWVRQAPGKGLEWVSSIYSDDSTYYADSVKGRFTISRDNSKNTLFLQINSLRAEDTAVYYCARDKEYVTSTGGAYYYFYYMDVWGQGTLVTVSS VL: not shown | 9.8 | 3.2 | – | 6.2 | binding result [9]: no binding
